This note sets out measurements from patent US20250304706A1 (Astellas, published 2025).

The target of the assay is T1, CD3εδ complex protein (human; alpaca, UniProt P07766 23-126; P04234 22-105).
T1 construct: they are not part of the secreted protein; also called human CD3; CD386 complex protein
Description: ELISA, CD3 complex immobilized. How it is done:
Binding activities of the anti-TSPAN8/anti-CD3 bispecific antibodies BTE-0001 to BTE-0067 to CD3 were evaluated by the ELISA. ELISA was performed according to a conventional method. The […] complex protein obtained in Example 1-3 was immobilized on a plate. BTE-0001 to BTE-0067 were used as the test antibodies. As a secondary antibody, Goat anti-Human IgG Fc, Multi-Species SP ads-HRP (2014-05, available from SouthernBiotech) was used. TMB+Substrate-Chromogen (S1599, available from Dako) was used as the detection reagent. Infinite M200pro (available from Tecan) was used to measure the absorbance. The EC50 values were calculated using variable slope model (four parameters) in GraphPad Prism with the maximum value in the same plate fixed at the top and the minimum value in the blank in the same plate fixed at the bottom. Since BTE-0001 was always measured in each plate as a control, only the EC50 value of BTE-0001 was expressed as the average value of a plurality of plates. […]
On the technique in general: In an ELISA, binding on a coated surface is turned into a signal by an enzyme label.

T1 sequence (P07766 23-126 limits assumed, stated change not applied, form in doubt, chain 1 of 2): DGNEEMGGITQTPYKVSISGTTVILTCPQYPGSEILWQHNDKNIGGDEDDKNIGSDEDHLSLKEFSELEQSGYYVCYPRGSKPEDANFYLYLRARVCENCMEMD
T1 sequence (P04234 22-105 limits assumed, stated change not applied, form in doubt, chain 2 of 2): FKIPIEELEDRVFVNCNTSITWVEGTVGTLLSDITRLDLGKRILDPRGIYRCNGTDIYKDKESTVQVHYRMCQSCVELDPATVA

B1: BTE-0151 (bispecific antibody, human IgG1, kappa, L234A L235A)
heavy: QVQLQQWGAGLLKPSETLSLTCAVYGGSFSPYYWSWIRQPPGKGLEWIGEINHSGSTNYNPSLKSRVTISVDTSKNQFSLKLSSVTAADTAVYYCARRAGDFDYWGQGTLVTVSSASTKGPSVFPLAPSSKSTSGGTAALGCLVKDYFPEPVTVSWNSGALTSGVHTFPAVLQSSGLYSLSSVVTVPSSSLGTQTYICNVNHKPSNTKVDKKVEPKSCDKTHTCPPCPAPEAAGGPSVFLFPPKPKDTLMISRTPEVTCVVVDVSHEDPEVKFNWYVDGVEVHNAKTKPREEQYNSTYRVVSVLTVLHQDWLNGKEYKCKVSNKALAAPIEKTISKAKGQPREPQVYTLPPSRDELTKNQVSLSCAVKGFYPSDIAVEWESNGQPENNYKTTPPVLDSDGSFFLVSKLTVDKSRWQQGNVFSCSVMHEALHNHYTQKSLSLSPGK
light: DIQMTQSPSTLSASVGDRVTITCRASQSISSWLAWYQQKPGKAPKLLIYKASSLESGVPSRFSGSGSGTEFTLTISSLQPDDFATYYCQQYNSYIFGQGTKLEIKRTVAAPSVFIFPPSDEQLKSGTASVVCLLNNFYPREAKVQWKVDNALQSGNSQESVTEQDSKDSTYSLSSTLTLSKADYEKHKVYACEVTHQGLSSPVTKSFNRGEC
scFv: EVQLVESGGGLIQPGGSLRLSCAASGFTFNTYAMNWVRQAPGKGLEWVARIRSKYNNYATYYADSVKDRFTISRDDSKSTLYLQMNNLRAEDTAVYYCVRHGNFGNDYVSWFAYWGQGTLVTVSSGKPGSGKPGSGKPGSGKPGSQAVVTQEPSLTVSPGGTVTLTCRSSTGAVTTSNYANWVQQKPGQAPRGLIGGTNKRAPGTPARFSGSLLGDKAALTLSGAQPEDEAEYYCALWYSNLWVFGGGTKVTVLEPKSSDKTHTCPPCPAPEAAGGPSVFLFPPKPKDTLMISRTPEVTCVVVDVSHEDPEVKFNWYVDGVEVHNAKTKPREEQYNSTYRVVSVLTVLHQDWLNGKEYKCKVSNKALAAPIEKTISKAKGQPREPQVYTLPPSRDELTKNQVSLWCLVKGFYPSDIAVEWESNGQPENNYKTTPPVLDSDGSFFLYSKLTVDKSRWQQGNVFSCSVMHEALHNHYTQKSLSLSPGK
notes: anti-CD37/anti-CD3
For B1, the response was half-maximal at 0.0747 µg/mL (EC50).

B2: BTE-0142 (bispecific antibody, human IgG1, kappa, L234A L235A)
heavy: B1 heavy
light: not shown
scFv: not shown
notes: anti-CD37/anti-CD3
With B2, the EC50 worked out at 0.292 µg/mL.

B3: BTE-0148 (bispecific antibody, human IgG1, kappa, L234A L235A)
heavy: B1 heavy
light: not shown
scFv: not shown
notes: anti-CD37/anti-CD3
The molecule B3 had an EC50 of 0.0364 µg/mL.

B4: BTE-0137 (bispecific antibody, human IgG1, kappa, L234A L235A)
heavy: B1 heavy
light: not shown
scFv: not shown
notes: anti-CD37/anti-CD3
Turning to B4, the EC50 came out at 1.6 µg/mL.

B5: BTE-0145 (bispecific antibody, human IgG1, kappa, L234A L235A)
heavy: B1 heavy
light: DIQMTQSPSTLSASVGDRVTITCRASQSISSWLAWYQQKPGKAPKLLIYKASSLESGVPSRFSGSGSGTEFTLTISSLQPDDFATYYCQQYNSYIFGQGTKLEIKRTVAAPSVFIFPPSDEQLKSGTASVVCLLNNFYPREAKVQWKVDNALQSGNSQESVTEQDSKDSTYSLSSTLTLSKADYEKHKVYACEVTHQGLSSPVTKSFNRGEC
scFv: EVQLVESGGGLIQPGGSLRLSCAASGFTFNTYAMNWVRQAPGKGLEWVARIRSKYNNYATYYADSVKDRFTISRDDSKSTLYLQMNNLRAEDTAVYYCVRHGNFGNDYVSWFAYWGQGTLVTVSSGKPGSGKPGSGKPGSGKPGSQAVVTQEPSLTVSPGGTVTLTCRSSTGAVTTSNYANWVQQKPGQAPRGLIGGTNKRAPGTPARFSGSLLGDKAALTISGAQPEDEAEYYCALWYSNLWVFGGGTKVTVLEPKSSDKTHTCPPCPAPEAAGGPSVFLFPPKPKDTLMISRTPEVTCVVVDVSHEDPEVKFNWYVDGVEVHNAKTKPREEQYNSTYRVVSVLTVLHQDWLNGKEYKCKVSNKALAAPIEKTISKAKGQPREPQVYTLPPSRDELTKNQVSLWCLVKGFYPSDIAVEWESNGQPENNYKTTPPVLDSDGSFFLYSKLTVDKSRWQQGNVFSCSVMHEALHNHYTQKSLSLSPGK
notes: anti-CD37/anti-CD3
For the molecule B5, the concentration giving a half-maximal response (EC50) stood at 0.0854 µg/mL.

B6: BTE-0143 (bispecific antibody, human IgG1, kappa, L234A L235A)
heavy: B1 heavy
light: not shown
scFv: not shown
notes: anti-CD37/anti-CD3
B6 yielded an EC50 of 0.0644 µg/mL.

B7: BTE-0149 (bispecific antibody, human IgG1, kappa, L234A L235A)
heavy: B1 heavy
light: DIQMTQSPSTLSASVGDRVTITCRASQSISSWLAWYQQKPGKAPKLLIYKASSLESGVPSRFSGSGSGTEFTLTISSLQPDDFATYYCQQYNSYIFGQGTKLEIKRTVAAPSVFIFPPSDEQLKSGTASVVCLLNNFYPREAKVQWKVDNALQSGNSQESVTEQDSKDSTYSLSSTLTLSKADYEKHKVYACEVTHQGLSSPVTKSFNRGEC
scFv: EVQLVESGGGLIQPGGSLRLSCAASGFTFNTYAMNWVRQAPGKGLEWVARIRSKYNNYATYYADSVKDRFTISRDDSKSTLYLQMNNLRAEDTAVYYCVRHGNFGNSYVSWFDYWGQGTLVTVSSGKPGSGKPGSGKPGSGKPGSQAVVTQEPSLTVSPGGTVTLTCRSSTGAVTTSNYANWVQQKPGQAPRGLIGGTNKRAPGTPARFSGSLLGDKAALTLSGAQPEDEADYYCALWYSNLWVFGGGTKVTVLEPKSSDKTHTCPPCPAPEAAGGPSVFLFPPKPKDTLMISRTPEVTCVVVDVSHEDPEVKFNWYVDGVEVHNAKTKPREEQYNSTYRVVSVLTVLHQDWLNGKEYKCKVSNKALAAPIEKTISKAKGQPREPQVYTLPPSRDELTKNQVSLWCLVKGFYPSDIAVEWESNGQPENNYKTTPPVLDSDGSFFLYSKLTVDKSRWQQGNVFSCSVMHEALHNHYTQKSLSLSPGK
notes: anti-CD37/anti-CD3
For B7, the EC50 was 0.209 µg/mL.

B8: BTE-0144 (bispecific antibody, human IgG1, kappa, L234A L235A)
heavy: B1 heavy
light: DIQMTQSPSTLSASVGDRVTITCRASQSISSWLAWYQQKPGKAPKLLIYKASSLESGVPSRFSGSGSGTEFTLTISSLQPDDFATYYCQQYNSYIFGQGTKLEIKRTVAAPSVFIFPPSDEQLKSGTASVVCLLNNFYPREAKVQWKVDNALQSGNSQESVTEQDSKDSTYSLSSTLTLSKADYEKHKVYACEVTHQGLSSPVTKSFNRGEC
scFv: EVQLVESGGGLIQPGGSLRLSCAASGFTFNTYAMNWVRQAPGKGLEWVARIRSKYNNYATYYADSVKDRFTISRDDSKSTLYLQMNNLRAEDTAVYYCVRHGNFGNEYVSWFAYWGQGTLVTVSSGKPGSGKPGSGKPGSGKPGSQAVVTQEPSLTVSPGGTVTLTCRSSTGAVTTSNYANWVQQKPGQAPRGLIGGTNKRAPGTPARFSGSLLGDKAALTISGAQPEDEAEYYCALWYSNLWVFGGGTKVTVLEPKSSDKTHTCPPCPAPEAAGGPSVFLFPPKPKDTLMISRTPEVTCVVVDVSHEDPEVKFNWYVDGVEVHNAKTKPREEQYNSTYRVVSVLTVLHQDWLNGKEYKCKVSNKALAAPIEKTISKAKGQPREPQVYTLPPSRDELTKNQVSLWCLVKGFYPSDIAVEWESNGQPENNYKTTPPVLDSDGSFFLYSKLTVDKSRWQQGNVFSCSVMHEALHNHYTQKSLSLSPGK
notes: anti-CD37/anti-CD3
Regarding B8, the midpoint of the response, the EC50, lay at 0.138 µg/mL.

B9: BTE-0140 (bispecific antibody, human IgG1, kappa, L234A L235A)
heavy: B1 heavy
light: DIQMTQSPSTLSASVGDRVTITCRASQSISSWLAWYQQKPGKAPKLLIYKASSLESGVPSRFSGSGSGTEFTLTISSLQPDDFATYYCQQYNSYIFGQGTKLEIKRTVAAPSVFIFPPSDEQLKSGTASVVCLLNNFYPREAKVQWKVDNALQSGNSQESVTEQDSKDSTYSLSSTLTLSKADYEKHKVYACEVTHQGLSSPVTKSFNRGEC
scFv: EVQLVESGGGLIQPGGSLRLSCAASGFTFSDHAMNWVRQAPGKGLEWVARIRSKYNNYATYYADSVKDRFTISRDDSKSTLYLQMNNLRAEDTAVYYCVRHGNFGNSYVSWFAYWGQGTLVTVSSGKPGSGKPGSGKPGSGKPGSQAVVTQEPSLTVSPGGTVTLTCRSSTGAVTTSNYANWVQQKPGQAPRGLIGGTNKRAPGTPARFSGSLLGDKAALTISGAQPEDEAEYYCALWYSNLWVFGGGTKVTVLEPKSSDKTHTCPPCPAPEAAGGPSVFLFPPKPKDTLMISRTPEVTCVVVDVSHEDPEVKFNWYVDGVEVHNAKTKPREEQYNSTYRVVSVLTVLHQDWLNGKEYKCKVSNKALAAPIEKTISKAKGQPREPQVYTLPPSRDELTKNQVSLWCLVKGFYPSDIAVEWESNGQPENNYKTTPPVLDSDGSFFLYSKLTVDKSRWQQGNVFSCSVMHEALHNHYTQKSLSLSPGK
notes: anti-CD37/anti-CD3
In turn, B9 had an EC50 of 0.205 µg/mL.

B10: BTE-0147 (bispecific antibody, human IgG1, kappa, L234A L235A)
heavy: B1 heavy
light: not shown
scFv: not shown
notes: anti-CD37/anti-CD3
On to B10, for which the response was half-maximal at 0.0317 µg/mL (EC50).

B11: BTE-0152 (bispecific antibody, human IgG1, kappa, L234A L235A)
heavy: B1 heavy
light: not shown
scFv: not shown
notes: anti-CD37/anti-CD3
B11 registered an EC50 of 0.36 µg/mL.

B12: BTE-0139 (bispecific antibody, human IgG1, kappa, L234A L235A)
heavy: B1 heavy
light: not shown
scFv: not shown
notes: anti-CD37/anti-CD3
On to B12, for which the midpoint of the response, the EC50, lay at 0.444 µg/mL.

B13: BTE-0138 (bispecific antibody, human IgG1, kappa, L234A L235A)
heavy: B1 heavy
light: not shown
scFv: not shown
notes: anti-CD37/anti-CD3
As for B13, the EC50 was determined as 0.071 µg/mL.

B14: BTE-0141 (bispecific antibody, human IgG1, kappa, L234A L235A)
heavy: B1 heavy
light: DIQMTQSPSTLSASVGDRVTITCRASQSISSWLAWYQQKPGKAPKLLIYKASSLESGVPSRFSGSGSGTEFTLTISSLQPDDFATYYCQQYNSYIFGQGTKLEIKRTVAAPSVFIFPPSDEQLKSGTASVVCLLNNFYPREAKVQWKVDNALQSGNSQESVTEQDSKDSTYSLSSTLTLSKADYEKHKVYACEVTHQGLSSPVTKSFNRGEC
scFv: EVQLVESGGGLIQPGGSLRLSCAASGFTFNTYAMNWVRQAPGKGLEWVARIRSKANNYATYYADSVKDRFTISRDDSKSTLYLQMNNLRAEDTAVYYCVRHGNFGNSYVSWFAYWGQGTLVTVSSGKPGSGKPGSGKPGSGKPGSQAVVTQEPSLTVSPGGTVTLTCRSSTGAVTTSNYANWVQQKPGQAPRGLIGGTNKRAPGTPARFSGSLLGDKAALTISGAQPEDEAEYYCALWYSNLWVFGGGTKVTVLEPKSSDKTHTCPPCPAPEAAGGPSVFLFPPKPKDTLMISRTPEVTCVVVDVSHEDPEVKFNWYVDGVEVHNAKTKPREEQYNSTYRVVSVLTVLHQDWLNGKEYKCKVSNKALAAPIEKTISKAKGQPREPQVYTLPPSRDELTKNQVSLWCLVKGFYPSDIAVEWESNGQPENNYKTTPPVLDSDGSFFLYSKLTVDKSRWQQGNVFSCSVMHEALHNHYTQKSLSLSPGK
notes: anti-CD37/anti-CD3
B14 had a concentration giving a half-maximal response (EC50) of 0.029 µg/mL.

B15: BTE-0146 (bispecific antibody, human IgG1, kappa, L234A L235A)
heavy: B1 heavy
light: not shown
scFv: not shown
notes: anti-CD37/anti-CD3
With B15, the midpoint of the response, the EC50, lay at 0.488 µg/mL.

B16: BTE-0136 (bispecific antibody, human IgG1, kappa, L234A L235A)
heavy: B1 heavy
light: not shown
scFv: not shown
notes: anti-CD37/anti-CD3
As to B16, the EC50 is 0.0669 µg/mL.

For orientation: EC50 means the concentration that produces a half-maximal response. Higher therefore signals a less potent agent.
